# According to publication PMC8298264, “Function of cofactor Akirin2 in the regulation of gene expression in model human neutrophil-like HL60 cells” (Bioscience Reports, 2021):
# B1: sp¦P48449¦LSS_HUMAN (protein, UniProt P48449 2-732, looked up)
# Lanosterol synthase: TEGTCLRRRGGPYKTEPATDLGRWRLNCERGRQTWTYLQDERAGREQTGLEAYALGLDTKNYFKDLPKAHTAFEGALNGMTFYVGLQAEDGHWTGDYGGPLFLLPGLLITCHVARIPLPAGYREEIVRYLRSVQLPDGGWGLHIEDKSTVFGTALNYVSLRILGVGPDDPDLVRARNILHKKGGAVAIPSWGKFWLAVLNVYSWEGLNTLFPEMWLFPDWAPAHPSTLWCHCRQVYLPMSYCYAVRLSAAEDPLVQSLRQELYVEDFASIDWLAQRNNVAPDELYTPHSWLLRVVYALLNLYEHHHSAHLRQRAVQKLYEHIVADDRFTKSISIGPISKTINMLVRWYVDGPASTAFQEHVSRIPDYLWMGLDGMKMQGTNGSQIWDTAFAIQALLEAGGHHRPEFSSCLQKAHEFLRLSQVPDNPPDYQKYYRQMRKGGFSFSTLDCGWIVSDCTAEALKAVLLLQEKCPHVTEHIPRERLCDAVAVLLNMRNPDGGFATYETKRGGHLLELLNPSEVFGDIMIDYTYVECTSAVMQALKYFHKRFPEHRAAEIRETLTQGLEFCRRQQRADGSWEGSWGVCFTYGTWFGLEAFACMGQTYRDGTACAEVSRACDFLLSRQMADGGWGEDFESCEERRYLQSAQSQIHNTCWAMMGLMAVRHPDIEAQERGVRCLLEKQLPNGDWPQENIAGVFNKSCAISYTSYRNIFPIWALGRFSQLYPERALAGHP
# B2: sp¦Q15758¦AAAT_HUMAN (protein, UniProt Q15758 1-541, looked up)
# Neutral amino acid …: MVADPPRDSKGLAAAEPTANGGLALASIEDQGAAAGGYCGSRDQVRRCLRANLLVLLTVVAVVAGVALGLGVSGAGGALALGPERLSAFVFPGELLLRLLRMIILPLVVCSLIGGAASLDPGALGRLGAWALLFFLVTTLLASALGVGLALALQPGAASAAINASVGAAGSAENAPSKEVLDSFLDLARNIFPSNLVSAAFRSYSTTYEERNITGTRVKVPVGQEVEGMNILGLVVFAIVFGVALRKLGPEGELLIRFFNSFNEATMVLVSWIMWYAPVGIMFLVAGKIVEMEDVGLLFARLGKYILCCLLGHAIHGLLVLPLIYFLFTRKNPYRFLWGIVTPLATAFGTSSSSATLPLMMKCVEENNGVAKHISRFILPIGATVNMDGAALFQCVAAVFIAQLSQQSLDFVKIITILVTATASSVGAAGIPAGGVLTLAIILEAVNLPVDHISLILAVDWLVDRSCTVLNVEGDALGAGLLQNYVDRTESRSTEPELIQVKSELPLDPLPVPTEEGNPLLKHYRGPAGDATVASEKESVM
# B3: sp¦Q9NVH1¦DJC11_HUMAN (protein, UniProt Q9NVH1 2-559, looked up)
# DnaJ homolog subfamily C …: ATALSEEELDNEDYYSLLNVRREASSEELKAAYRRLCMLYHPDKHRDPELKSQAERLFNLVHQAYEVLSDPQTRAIYDIYGKRGLEMEGWEVVERRRTPAEIREEFERLQREREERRLQQRTNPKGTISVGVDATDLFDRYDEEYEDVSGSSFPQIEINKMHISQSIEAPLTATDTAILSGSLSTQNGNGGGSINFALRRVTSAKGWGELEFGAGDLQGPLFGLKLFRNLTPRCFVTTNCALQFSSRGIRPGLTTVLARNLDKNTVGYLQWRWGIQSAMNTSIVRDTKTSHFTVALQLGIPHSFALISYQHKFQDDDQTRVKGSLKAGFFGTVVEYGAERKISRHSVLGAAVSVGVPQGVSLKVKLNRASQTYFFPIHLTDQLLPSAMFYATVGPLVVYFAMHRLIIKPYLRAQKEKELEKQRESAATDVLQKKQEAESAVRLMQESVRRIIEAEESRMGLIIVNAWYGKFVNDKSRKSEKVKVIDVTVPLQCLVKDSKLILTEASKAGLPGFYDPCVGEEKNLKVLYQFRGVLHQVMVLDSEALRIPKQSHRIDTDG
# B4: sp¦O15173¦PGRC2_HUMAN (protein, UniProt O15173 1-223, looked up)
# Membrane-associated …: MAAGDGDVKLGTLGSGSESSNDGGSESPGDAGAAAEGGGWAAAALALLTGGGEMLLNVALVALVLLGAYRLWVRWGRRGLGAGAGAGEESPATSLPRMKKRDFSLEQLRQYDGSRNPRILLAVNGKVFDVTKGSKFYGPAGPYGIFAGRDASRGLATFCLDKDALRDEYDDLSDLNAVQMESVREWEMQFKEKYDYVGRLLKPGEEPSEYTDEEDTKDHNKQD
# B5: sp¦Q9H3N1¦TMX1_HUMAN (protein, UniProt Q9H3N1 27-280, looked up)
# Thioredoxin-related …: RRSNVRVITDENWRELLEGDWMIEFYAPWCPACQNLQPEWESFAEWGEDLEVNIAKVDVTEQPGLSGRFIITALPTIYHCKDGEFRRYQGPRTKKDFINFISDKEWKSIEPVSSWFGPGSVLMSSMSALFQLSMWIRTCHNYFIEDLGLPVWGSYTVFALATLFSGLLLGLCMIFVADCLCPSKRRRPQPYPYPSKKLLSESAQPLKKVEEEQEADEEDVSEEEAESKEGTNKDFPQNAIRQRSLGPSLATDKS
# B6: sp¦O95466¦FMNL1_HUMAN (protein, UniProt O95466 2-1100, looked up)
# Formin-like protein 1: GNAAGSAEQPAGPAAPPPKQPAPPKQPMPAAGELEERFNRALNCMNLPPDKVQLLSQYDNEKKWELICDQERFQVKNPPAAYIQKLKSYVDTGGVSRKVAADWMSNLGFKRRVQESTQVLRELETSLRTNHIGWVQEFLNEENRGLDVLLEYLAFAQCSVTYDMESTDNGASNSEKNKPLEQSVEDLSKGPPSSVPKSRHLTIKLTPAHSRKALRNSRIVSQKDDVHVCIMCLRAIMNYQSGFSLVMNHPACVNEIALSLNNKNPRTKALVLELLAAVCLVRGGHDIILAAFDNFKEVCGEQHRFEKLMEYFRNEDSNIDFMVACMQFINIVVHSVENMNFRVFLQYEFTHLGLDLYLERLRLTESDKLQVQIQAYLDNIFDVGALLEDTETKNAVLEHMEELQEQVALLTERLRDAENESMAKIAELEKQLSQARKELETLRERFSESTAMGPSRRPPEPEKAPPAAPTRPSALELKVEELEEKGLIRILRGPGDAVSIEILPVAVATPSGGDAPTPGVPTGSPSPDLAPAAEPAPGAAPPPPPPLPGLPSPQEAPPSAPPQAPPLPGSPEPPPAPPLPGDLPPPPPPPPPPPGTDGPVPPPPPPPPPPPGGPPDALGRRDSELGPGVKAKKPIQTKFRMPLLNWVALKPSQITGTVFTELNDEKVLQELDMSDFEEQFKTKSQGPSLDLSALKSKAAQKAPSKATLIEANRAKNLAITLRKGNLGAERICQAIEAYDLQALGLDFLELLMRFLPTEYERSLITRFEREQRPMEELSEEDRFMLCFSRIPRLPERMTTLTFLGNFPDTAQLLMPQLNAIIAASMSIKSSDKLRQILEIVLAFGNYMNSSKRGAAYGFRLQSLDALLEMKSTDRKQTLLHYLVKVIAEKYPQLTGFHSDLHFLDKAGSVSLDSVLADVRSLQRGLELTQREFVRQDDCMVLKEFLRANSPTMDKLLADSKTAQEAFESVVEYFGENPKTTSPGLFFSLFSRFIKAYKKAEQEVEQWKKEAAAQEAGADTPGKGEPPAPKSPPKARRPQMDLISELKRRQQKEPLIYESDRDGAIEDIITVIKTVPFTARTGKRTSRLLCEASLGEEMPL
# B7: sp¦P11177¦ODPB_HUMAN (protein, UniProt P11177 31-359, looked up)
# Pyruvate dehydrogenase E1 …: LQVTVRDAINQGMDEELERDEKVFLLGEEVAQYDGAYKVSRGLWKKYGDKRIIDTPISEMGFAGIAVGAAMAGLRPICEFMTFNFSMQAIDQVINSAAKTYYMSGGLQPVPIVFRGPNGASAGVAAQHSQCFAAWYGHCPGLKVVSPWNSEDAKGLIKSAIRDNNPVVVLENELMYGVPFEFPPEAQSKDFLIPIGKAKIERQGTHITVVSHSRPVGHCLEAAAVLSKEGVECEVINMRTIRPMDMETIEASVMKTNHLVTVEGGWPQFGVGAEICARIMEGPAFNFLDAPAVRVTGADVPMPYAKILEDNSIPQVKDIIFAIKKTLNI
# B8: sp¦O14776¦TCRG1_HUMAN (protein, UniProt O14776 1-1098, looked up)
# Transcription elongation …: MAERGGDGGESERFNPGELRMAQQQALRFRGPAPPPNAVMRGPPPLMRPPPPFGMMRGPPPPPRPPFGRPPFDPNMPPMPPPGGIPPPMGPPHLQRPPFMPPPMSSMPPPPGMMFPPGMPPVTAPGTPALPPTEEIWVENKTPDGKVYYYNARTRESAWTKPDGVKVIQQSELTPMLAAQAQVQAQAQAQAQAQAQAQAQAQAQAQAQAQAQAQAQAQAQAQAQAQAQAQAQAQAQAQAQAQVQAQVQAQVQAQAVGASTPTTSSPAPAVSTSTSSSTPSSTTSTTTTATSVAQTVSTPTTQDQTPSSAVSVATPTVSVSTPAPTATPVQTVPQPHPQTLPPAVPHSVPQPTTAIPAFPPVMVPPFRVPLPGMPIPLPGVAMMQIVSCPYVKTVATTKTGVLPGMAPPIVPMIHPQVAIAASPATLAGATAVSEWTEYKTADGKTYYYNNRTLESTWEKPQELKEKEKLEEKIKEPIKEPSEEPLPMETEEEDPKEEPIKEIKEEPKEEEMTEEEKAAQKAKPVATAPIPGTPWCVVWTGDERVFFYNPTTRLSMWDRPDDLIGRADVDKIIQEPPHKKGMEELKKLRHPTPTMLSIQKWQFSMSAIKEEQELMEEINEDEPVKAKKRKRDDNKDIDSEKEAAMEAEIKAARERAIVPLEARMKQFKDMLLERGVSAFSTWEKELHKIVFDPRYLLLNPKERKQVFDQYVKTRAEEERREKKNKIMQAKEDFKKMMEEAKFNPRATFSEFAAKHAKDSRFKAIEKMKDREALFNEFVAAARKKEKEDSKTRGEKIKSDFFELLSNHHLDSQSRWSKVKDKVESDPRYKAVDSSSMREDLFKQYIEKIAKNLDSEKEKELERQARIEASLREREREVQKARSEQTKEIDREREQHKREEAIQNFKALLSDMVRSSDVSWSDTRRTLRKDHRWESGSLLEREEKEKLFNEHIEALTKKKREHFRQLLDETSAITLTSTWKEVKKIIKEDPRCIKFSSSDRKKQREFEEYIRDKYITAKADFRTLLKETKFITYRSKKLIQESDQHLKDVEKILQNDKRYLVLDCVPEERRKLIVAYVDDLDRRGPPPPPTASEPTRRSTK
# Tested on: human HL60 cells
# Experiment: SWATH-MS proteomics, differential protein representation, akirin2 KO vs WT HL60 cells
# Type: cell-based
# Conditions: akirin2 KO vs WT HL60 cells
# In short: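 Proteins from WT and akirin2 KO HL60 cells (n=3 biological replicates) were FASP trypsin-digested and analyzed by SWATH-MS DIA with variable windows against an IDA-derived spectral library. Identifications at 1% global FDR; quantities normalized to total area sums of all detected proteins.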
# [1] = SWATH-MS, under-represented in KO
# [2] = sheet "Under-represented in KO"
Molecule,Fold Change [1],Log (Fold Change) [1],Fold Change [2],Log (Fold Change) [2]
B1,0.7416,-0.1298,,
B2,,,0.3333,-0.4771
B3,0.7368,-0.1326,,
B4,0.7369,-0.1326,,
B5,0.7331,-0.1348,,
B6,,,0.3323,-0.4785
B7,0.7344,-0.1341,,
B8,0.7373,-0.1323,,
